Data as given in patent US5695963.

Tests used:
[1] = target: mouse aryl hydrocarbon receptor nuclear transport protein (ARNT) (mouse) (UniProt P53762)
[2] = target: EPAS1 (Homo sapiens) (UniProt Q99814); assay: cell_activity; conditions: 293 cells, endogenous ARNT
[3] = tested on: EPAS1/ARNT heterodimer (cotransfected) (Homo sapiens (EPAS1) / Mus musculus? (ARNT)); assay: cell_activity; conditions: ARNT-deficient c4 cells; EPAS1 alone 1.8-fold; Hepa1c1c7 with EPAS1 9-fold
[4] = target: HIF-1alpha (Homo sapiens) (UniProt Q16665); assay: cell_activity; conditions: 293 cells, larger amounts of plasmid
HIF-1alpha (Homo sapiens), sequence (Q16665 whole entry): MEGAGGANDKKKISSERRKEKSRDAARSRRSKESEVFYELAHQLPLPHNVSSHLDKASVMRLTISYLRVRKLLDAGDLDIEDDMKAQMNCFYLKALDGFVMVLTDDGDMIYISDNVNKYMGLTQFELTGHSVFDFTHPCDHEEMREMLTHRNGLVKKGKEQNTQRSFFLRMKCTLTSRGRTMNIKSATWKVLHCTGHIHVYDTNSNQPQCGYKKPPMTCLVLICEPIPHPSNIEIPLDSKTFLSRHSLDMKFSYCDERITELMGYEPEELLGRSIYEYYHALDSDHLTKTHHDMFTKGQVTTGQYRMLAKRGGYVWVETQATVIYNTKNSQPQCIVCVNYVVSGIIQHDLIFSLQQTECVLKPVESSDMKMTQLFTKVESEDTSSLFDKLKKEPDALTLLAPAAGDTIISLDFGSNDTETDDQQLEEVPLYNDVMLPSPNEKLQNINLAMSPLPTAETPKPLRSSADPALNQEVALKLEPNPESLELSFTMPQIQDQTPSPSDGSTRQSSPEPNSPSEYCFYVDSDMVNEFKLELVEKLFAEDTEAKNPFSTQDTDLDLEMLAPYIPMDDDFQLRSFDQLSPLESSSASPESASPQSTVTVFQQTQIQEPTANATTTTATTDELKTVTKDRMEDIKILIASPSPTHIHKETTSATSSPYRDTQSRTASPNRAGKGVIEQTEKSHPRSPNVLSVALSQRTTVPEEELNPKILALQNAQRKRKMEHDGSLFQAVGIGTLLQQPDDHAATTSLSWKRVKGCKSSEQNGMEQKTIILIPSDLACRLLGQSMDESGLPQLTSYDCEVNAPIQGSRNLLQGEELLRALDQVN

EPAS1 (Homo sapiens), sequence (Q99814 whole entry A60E): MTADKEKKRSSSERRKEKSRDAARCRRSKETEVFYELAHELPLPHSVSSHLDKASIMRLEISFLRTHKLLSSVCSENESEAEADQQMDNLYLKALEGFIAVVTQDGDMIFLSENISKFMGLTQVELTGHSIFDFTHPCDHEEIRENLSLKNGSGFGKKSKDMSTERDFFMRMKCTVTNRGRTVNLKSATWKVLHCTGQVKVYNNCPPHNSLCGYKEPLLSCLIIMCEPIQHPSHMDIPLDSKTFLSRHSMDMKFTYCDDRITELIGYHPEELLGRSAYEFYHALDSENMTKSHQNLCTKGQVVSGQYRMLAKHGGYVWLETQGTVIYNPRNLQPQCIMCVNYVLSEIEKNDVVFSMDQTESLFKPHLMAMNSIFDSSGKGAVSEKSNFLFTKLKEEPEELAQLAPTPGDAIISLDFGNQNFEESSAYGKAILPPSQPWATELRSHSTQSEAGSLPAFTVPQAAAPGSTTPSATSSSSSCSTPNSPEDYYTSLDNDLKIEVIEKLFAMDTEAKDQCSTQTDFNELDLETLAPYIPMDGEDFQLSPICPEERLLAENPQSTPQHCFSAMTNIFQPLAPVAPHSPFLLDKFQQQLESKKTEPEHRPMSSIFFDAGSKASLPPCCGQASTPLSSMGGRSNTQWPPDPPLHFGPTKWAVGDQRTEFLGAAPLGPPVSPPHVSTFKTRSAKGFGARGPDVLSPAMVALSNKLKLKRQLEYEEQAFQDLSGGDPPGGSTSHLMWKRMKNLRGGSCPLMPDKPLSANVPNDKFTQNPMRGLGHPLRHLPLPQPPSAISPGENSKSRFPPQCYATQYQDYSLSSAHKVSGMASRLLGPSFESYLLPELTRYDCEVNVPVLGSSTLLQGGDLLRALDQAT

luciferase activity of the pRE-Elb-LUC reporter in ARNT-deficient c4 hepatoma cells [1]	Substance	activity (fold induction) [2]	activity (fold induction) [3]	activity (fold induction) [4]
12 fold	human EPAS1 protein			
	three copies of 50-nt EPO hypoxia-inducible enhancer in luciferase reporter	12	12	7
